Measurements: patent US20210246166A1 (Bayer, published 2021)
Bridge positions count the residues as written; N and C are the ends. Square brackets hold non-standard residues; d marks the D form. Ends that are not written are not given here. Oic = O=C(O)[C@@H]1C[C@@H]2CCCC[C@@H]2N1; Phe(2-Cl) = N[C@@H](Cc1ccccc1Cl)C(=O)O; Nva(3-Et) = CCC(CC)[C@H](N)C(=O)O; NMeI = CC[C@H](C)[C@H](NC)C(=O)O; tBuAla = CC(C)(C)C[C@H](N)C(=O)O; Chg = N[C@H](C(=O)O)C1CCCCC1; NMeC = CN[C@@H](CS)C(=O)O; NMeA = CN[C@@H](C)C(=O)O; Orn = NCCC[C@H](N)C(=O)O; Nva = CCC[C@H](N)C(=O)O; Abu = CC[C@H](N)C(=O)O; Sar = CNCC(=O)O

T1: recombinant rat MASP1 active protease (amino acids 302-704, C-terminal His Tag) (rat, UniProt Q8CHN8 302-704)
T1 sequence: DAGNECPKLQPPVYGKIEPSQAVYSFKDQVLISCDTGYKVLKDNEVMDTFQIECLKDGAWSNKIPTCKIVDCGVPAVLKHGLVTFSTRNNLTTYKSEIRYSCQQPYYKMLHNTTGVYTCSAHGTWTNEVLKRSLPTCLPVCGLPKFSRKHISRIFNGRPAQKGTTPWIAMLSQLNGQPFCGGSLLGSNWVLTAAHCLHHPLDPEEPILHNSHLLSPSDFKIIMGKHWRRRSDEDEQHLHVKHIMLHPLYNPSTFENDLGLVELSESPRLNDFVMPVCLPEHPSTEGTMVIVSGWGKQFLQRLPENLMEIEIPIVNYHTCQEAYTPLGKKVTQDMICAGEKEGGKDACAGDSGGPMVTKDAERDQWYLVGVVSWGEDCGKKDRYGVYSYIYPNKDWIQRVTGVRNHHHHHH


These binders were tested against T1, recombinant rat MASP1 active protease … (assay: cell-based or functional assay).

rat MASP1 IC50 | Binder
150 nM | AICSRS[Phe(2-Cl)]PPI[NMeC]IPD-NH2 (disulfide 3-11; N-terminus assumed; SMILES CC[C@H](C)[C@H](NC(=O)[C@H](C)N)C(=O)N[C@H]1CSSC[C@@H](C(=O)N[C@H](C(=O)N2CCC[C@H]2C(=O)N[C@@H](CC(=O)O)C(N)=O)[C@@H](C)CC)N(C)C(=O)[C@H]([C@@H](C)CC)NC(=O)[C@@H]2CCCN2C(=O)[C@@H]2CCCN2C(=O)[C@H](Cc2ccccc2Cl)NC(=O)[C@H](CO)NC(=O)[C@H](CCCNC(=N)N)NC(=O)[C@H](CO)NC1=O) [Example 238: AIC+SRS-((2-Chloro)F)-PPI-((N-Me)C)+IPD-NH2]
330 nM | AICSRSLPP[Nva(3-Et)]CIPD-NH2 (disulfide 3-11; N-terminus assumed; SMILES CCC(CC)[C@@H]1NC(=O)[C@@H]2CCCN2C(=O)[C@@H]2CCCN2C(=O)[C@H](CC(C)C)NC(=O)[C@H](CO)NC(=O)[C@H](CCCNC(=N)N)NC(=O)[C@H](CO)NC(=O)[C@@H](NC(=O)[C@@H](NC(=O)[C@H](C)N)[C@@H](C)CC)CSSC[C@@H](C(=O)N[C@H](C(=O)N2CCC[C@H]2C(=O)N[C@@H](CC(=O)O)C(N)=O)[C@@H](C)CC)NC1=O) [Example 209: AIC+SRSLPP-((S)-2-amino-3-ethyl-pentanoic acid)-C+IPD-NH2]
300 nM | G[NMeI]CSRSLPPICIPD-NH2 (disulfide 3-11; also: HCl salt) [Example 205: G-((N-Me)I)-C+SRSLPPIC+IPD-NH2 (HCl salt)]
260 nM | [Sar]ICSRSLPPICIPD-NH2 (disulfide 3-11; also: HCl salt) [Example 228: ((N-Me)G)-IC+SRSLPPIC+IPD-NH2 (HCl salt)]
380 nM | [Orn]ICSRS[tBuAla]PPICI-NH2 (disulfide 3-11; N-terminus assumed; SMILES CC[C@H](C)[C@H](NC(=O)[C@@H]1CSSC[C@H](NC(=O)[C@@H](NC(=O)[C@@H](N)CCCN)[C@@H](C)CC)C(=O)N[C@@H](CO)C(=O)N[C@@H](CCCNC(=N)N)C(=O)N[C@@H](CO)C(=O)N[C@@H](CC(C)(C)C)C(=O)N2CCC[C@H]2C(=O)N2CCC[C@H]2C(=O)N[C@@H]([C@@H](C)CC)C(=O)N1)C(N)=O) [Example 186: (Orn)-IC+SRS-((tBu)A)-PPIC+I-NH2]
230 nM | [Orn]ICSRSLPP[Chg]CIPD-OH (disulfide 3-11; N-terminus assumed; SMILES CC[C@H](C)[C@H](NC(=O)[C@@H](N)CCCN)C(=O)N[C@H]1CSSC[C@@H](C(=O)N[C@H](C(=O)N2CCC[C@H]2C(=O)N[C@@H](CC(=O)O)C(=O)O)[C@@H](C)CC)NC(=O)[C@H](C2CCCCC2)NC(=O)[C@@H]2CCCN2C(=O)[C@@H]2CCCN2C(=O)[C@H](CC(C)C)NC(=O)[C@H](CO)NC(=O)[C@H](CCCNC(=N)N)NC(=O)[C@H](CO)NC1=O) [Example 225: (Orn)-IC+SRSLPP-(Chg)-C+IPD-OH]
28 nM | [NMeA]ICSRS[tBuAla]PPI[NMeC]IPD-NH2 (disulfide 3-11; N-terminus assumed; SMILES CC[C@H](C)[C@H](NC(=O)[C@H](C)NC)C(=O)N[C@H]1CSSC[C@@H](C(=O)N[C@H](C(=O)N2CCC[C@H]2C(=O)N[C@@H](CC(=O)O)C(N)=O)[C@@H](C)CC)N(C)C(=O)[C@H]([C@@H](C)CC)NC(=O)[C@@H]2CCCN2C(=O)[C@@H]2CCCN2C(=O)[C@H](CC(C)(C)C)NC(=O)[C@H](CO)NC(=O)[C@H](CCCNC(=N)N)NC(=O)[C@H](CO)NC1=O) [Example 175: ((N-Me)A)-IC+SRS-((tBu)A)-PPI-((N-Me)C)+IPD-NH2]
78 nM | AICSRS[tBuAla]P[Oic]ICIPD-NH2 (disulfide 3-11; N-terminus assumed; SMILES CC[C@H](C)[C@H](NC(=O)[C@H](C)N)C(=O)N[C@H]1CSSC[C@@H](C(=O)N[C@H](C(=O)N2CCC[C@H]2C(=O)N[C@@H](CC(=O)O)C(N)=O)[C@@H](C)CC)NC(=O)[C@H]([C@@H](C)CC)NC(=O)[C@@H]2C[C@@H]3CCCC[C@@H]3N2C(=O)[C@@H]2CCCN2C(=O)[C@H](CC(C)(C)C)NC(=O)[C@H](CO)NC(=O)[C@H](CCCNC(=N)N)NC(=O)[C@H](CO)NC1=O) [Example 234: AIC+SRS-((tBu)A)-P-(Oic)-I-C+IPD-NH2]
240 nM | [Nva]ICSRSLPPICIPD-NH2 (disulfide 3-11; N-terminus assumed; SMILES CCC[C@H](N)C(=O)N[C@H](C(=O)N[C@H]1CSSC[C@@H](C(=O)N[C@H](C(=O)N2CCC[C@H]2C(=O)N[C@@H](CC(=O)O)C(N)=O)[C@@H](C)CC)NC(=O)[C@H]([C@@H](C)CC)NC(=O)[C@@H]2CCCN2C(=O)[C@@H]2CCCN2C(=O)[C@H](CC(C)C)NC(=O)[C@H](CO)NC(=O)[C@H](CCCNC(=N)N)NC(=O)[C@H](CO)NC1=O)[C@@H](C)CC) [Example 216: (Nva)-IC+SRSLPPIC+IPD-NH2]
13 nM | YICSRS[tBuAla]PPI[NMeC]I-NH2 (disulfide 3-11; N-terminus assumed; SMILES CC[C@H](C)[C@H](NC(=O)[C@@H]1CSSC[C@H](NC(=O)[C@@H](NC(=O)[C@@H](N)Cc2ccc(O)cc2)[C@@H](C)CC)C(=O)N[C@@H](CO)C(=O)N[C@@H](CCCNC(=N)N)C(=O)N[C@@H](CO)C(=O)N[C@@H](CC(C)(C)C)C(=O)N2CCC[C@H]2C(=O)N2CCC[C@H]2C(=O)N[C@@H]([C@@H](C)CC)C(=O)N1C)C(N)=O) [Example 182: YIC+SRS-((tBu)A)-PPI-((N-Me)C)+I-NH2]
240 nM | AICSRSLPP[Chg]CIPD-OH (disulfide 3-11; N-terminus assumed; SMILES CC[C@H](C)[C@H](NC(=O)[C@H](C)N)C(=O)N[C@H]1CSSC[C@@H](C(=O)N[C@H](C(=O)N2CCC[C@H]2C(=O)N[C@@H](CC(=O)O)C(=O)O)[C@@H](C)CC)NC(=O)[C@H](C2CCCCC2)NC(=O)[C@@H]2CCCN2C(=O)[C@@H]2CCCN2C(=O)[C@H](CC(C)C)NC(=O)[C@H](CO)NC(=O)[C@H](CCCNC(=N)N)NC(=O)[C@H](CO)NC1=O) [Example 222: AIC+SRSLPP-(Chg)-C+IPD-OH]
890 nM | [Orn]ICSRSLPPICI-NH2 (disulfide 3-11; N-terminus assumed; SMILES CC[C@H](C)[C@H](NC(=O)[C@@H]1CSSC[C@H](NC(=O)[C@@H](NC(=O)[C@@H](N)CCCN)[C@@H](C)CC)C(=O)N[C@@H](CO)C(=O)N[C@@H](CCCNC(=N)N)C(=O)N[C@@H](CO)C(=O)N[C@@H](CC(C)C)C(=O)N2CCC[C@H]2C(=O)N2CCC[C@H]2C(=O)N[C@@H]([C@@H](C)CC)C(=O)N1)C(N)=O) [Example 236: (Orn)-IC+SRSLPPIC+I-NH2]
130 nM | FICSRS[tBuAla]PPI[NMeC]I-NH2 (disulfide 3-11; N-terminus assumed; SMILES CC[C@H](C)[C@H](NC(=O)[C@@H]1CSSC[C@H](NC(=O)[C@@H](NC(=O)[C@@H](N)Cc2ccccc2)[C@@H](C)CC)C(=O)N[C@@H](CO)C(=O)N[C@@H](CCCNC(=N)N)C(=O)N[C@@H](CO)C(=O)N[C@@H](CC(C)(C)C)C(=O)N2CCC[C@H]2C(=O)N2CCC[C@H]2C(=O)N[C@@H]([C@@H](C)CC)C(=O)N1C)C(N)=O) [Example 181: FIC+SRS-((tBu)A)-PPI-((N-Me)C)+I-NH2]
370 nM | [Abu]ICSRSLPPICIPD-NH2 (disulfide 3-11; N-terminus assumed; SMILES CC[C@H](N)C(=O)N[C@H](C(=O)N[C@H]1CSSC[C@@H](C(=O)N[C@H](C(=O)N2CCC[C@H]2C(=O)N[C@@H](CC(=O)O)C(N)=O)[C@@H](C)CC)NC(=O)[C@H]([C@@H](C)CC)NC(=O)[C@@H]2CCCN2C(=O)[C@@H]2CCCN2C(=O)[C@H](CC(C)C)NC(=O)[C@H](CO)NC(=O)[C@H](CCCNC(=N)N)NC(=O)[C@H](CO)NC1=O)[C@@H](C)CC) [Example 230: (Abu)-IC+SRSLPPIC+IPD-NH2]
120 nM | WICSRS[tBuAla]PPI[NMeC]I-NH2 (disulfide 3-11; N-terminus assumed; SMILES CC[C@H](C)[C@H](NC(=O)[C@@H]1CSSC[C@H](NC(=O)[C@@H](NC(=O)[C@@H](N)Cc2c[nH]c3ccccc23)[C@@H](C)CC)C(=O)N[C@@H](CO)C(=O)N[C@@H](CCCNC(=N)N)C(=O)N[C@@H](CO)C(=O)N[C@@H](CC(C)(C)C)C(=O)N2CCC[C@H]2C(=O)N2CCC[C@H]2C(=O)N[C@@H]([C@@H](C)CC)C(=O)N1C)C(N)=O) [Example 223: WIC+SRS-((tBu)A)-PPI-((N-Me)C)+I-NH2]
38 nM | AICSRS[tBuAla]P[Oic]I[NMeC]IPD-OH (disulfide 3-11; N-terminus assumed; SMILES CC[C@H](C)[C@H](NC(=O)[C@H](C)N)C(=O)N[C@H]1CSSC[C@@H](C(=O)N[C@H](C(=O)N2CCC[C@H]2C(=O)N[C@@H](CC(=O)O)C(=O)O)[C@@H](C)CC)N(C)C(=O)[C@H]([C@@H](C)CC)NC(=O)[C@@H]2C[C@@H]3CCCC[C@@H]3N2C(=O)[C@@H]2CCCN2C(=O)[C@H](CC(C)(C)C)NC(=O)[C@H](CO)NC(=O)[C@H](CCCNC(=N)N)NC(=O)[C@H](CO)NC1=O) [Example 231: AIC+SRS-((tBu)A)-P-(Oic)-I-((N-Me)C)+IPD-OH]
19 nM | AICSRS[tBuAla]PPICIDD-OH (disulfide 3-11; N-terminus assumed; SMILES CC[C@H](C)[C@H](NC(=O)[C@H](C)N)C(=O)N[C@H]1CSSC[C@@H](C(=O)N[C@H](C(=O)N[C@@H](CC(=O)O)C(=O)N[C@@H](CC(=O)O)C(=O)O)[C@@H](C)CC)NC(=O)[C@H]([C@@H](C)CC)NC(=O)[C@@H]2CCCN2C(=O)[C@@H]2CCCN2C(=O)[C@H](CC(C)(C)C)NC(=O)[C@H](CO)NC(=O)[C@H](CCCNC(=N)N)NC(=O)[C@H](CO)NC1=O) [Example 210: AIC+SRS-((tBu)A)-PPIC+IDD-OH]
